This note sets out measurements from article PMC3713010, “Sox2 Transcriptionally Regulates Pqbp1, an Intellectual Disability-Microcephaly Causative Gene, in Neural Stem Progenitor Cells”.

Common to all, as to assay: EMSA; 10% glycerol, 20 mM HEPES pH 7.8, 45 mM KCl, 10 mM NaCl, 1 mM EDTA, 1 mM DTT, 0.2 ug/uL BSA, 0.1% NP-40, 50 ng poly-dIdC; 20 ng each GST protein; room temperature 30 min (heterodimers 4 C); 6% PAGE 0.25x TBE
Common to all, as to conditions: protein: recombinant; tags: GST (N-terminal, pGEX-6P-1); label: 32P-dCTP fill-in of the 5' (dG)5 overhangs of both strands (Methods; control probes are given with GGG)
On the technique in general: In EMSA bound probe runs differently from free probe, usually more slowly.

For series [1], the target named is Pax6 DNA-binding domain (BD-Pax6) (Mus musculus (B6), UniProt P63015 190-289). Summed up: (§1)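 GST-tagged transcription factor DNA-binding domains were made in E. coli BL21 and purified on glutathione-sepharose. They were tested against candidate cis-element oligonucleotides, annealed and labelled with 32P-dCTP. Each protein (20 ng) was mixed with 40,000–50,000 cpm probe and 50 ng poly-dIdC in HEPES/KCl glycerol buffer with BSA and detergent for 30 min at room temperature. Samples were resolved on 6% polyacrylamide in 0.25×TBE at 4°C. DNA binding was scored as band radioactivity in the expected shift region, measured on a BAS4000 imager.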
Pax6 DNA-binding domain (BD-Pax6), sequence (P63015 190-289): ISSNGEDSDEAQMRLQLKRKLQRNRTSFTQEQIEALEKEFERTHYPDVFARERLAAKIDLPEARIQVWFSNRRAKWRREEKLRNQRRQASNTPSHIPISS

Series [2] concerns the target T1, Brn2 DNA-binding domain (BD-Brn2) (Mus musculus (B6), UniProt P31360 336-435).
T1 sequence: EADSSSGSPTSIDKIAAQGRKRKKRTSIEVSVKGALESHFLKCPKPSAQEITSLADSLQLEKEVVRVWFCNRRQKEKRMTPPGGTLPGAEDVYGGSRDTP
Summed up: as §1

For series [3], the target named is T2, Oct6 DNA-binding domain (BD-Oct6) (Mus musculus (B6), UniProt P21952 317-416).
T2 sequence: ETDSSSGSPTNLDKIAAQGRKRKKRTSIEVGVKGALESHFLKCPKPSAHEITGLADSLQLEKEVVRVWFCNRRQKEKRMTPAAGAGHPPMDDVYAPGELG
The method in brief: as §1

B1: 121 (dsDNA)
DNA 1: GGGGGGTGCTCAATTTGTGTTAGCTATTACTAGCAAGTCATTAACTCACCCCCC
DNA 2: GGGGGGTGAGTTAATGACTTGCTAGTAATAGCTAACACAAATTGAGCACCCCCC
Consider B1, for which the binding result in series [1], in series [2] and in series [3] was “binds” each time.

B2: 120 (dsDNA)
DNA 1: GGGGGTCCACACTCTATAATCTCACATTGTTTGGCACCCCCCC
DNA 2: GGGGGGGTGCCAAACAATGTGAGATTATAGAGTGTGGACCCCC
As to B2, the values for the binding result in series [1], in series [2] and in series [3] were “no binding”, “no binding” and “binds”, respectively.

B3: 126 (dsDNA)
DNA 1: GGGGGAATGTTGTCATAATTGAAAAAGACAAAGCACTAATCCCCC
DNA 2: GGGGGATTAGTGCTTTGTCTTTTTCAATTATGACAACATTCCCCC
In the case of B3, the binding result in series [1], in series [2] and in series [3] was “binds” each time.

B4: 125 (dsDNA)
DNA 1: GGGGGGGGATGCAATTGTCAGTCACCTTTCTTGAGCCTGTGGGACCCCC
DNA 2: GGGGGTCCCACAGGCTCAAGAAAGGTGACTGACAATTGCATCCCCCCCC
For B4, the binding result in series [1] is reported as “no binding”; in series [2] it was “binds”; in series [3] it was “binds”.

B5: 4b (dsDNA)
DNA 1: GGGGGAGTCTCTGTAAAATTAACAAACAAGTTACCCCCC
DNA 2: GGGGGGTAACTTGTTTGTTAATTTTACAGAGACTCCCCC
Take B5: the figures for the binding result in series [1], in series [2] and in series [3] were “no binding”, “binds” and “binds”, respectively.

B6: 5 (dsDNA)
DNA 1: GGGGGTGTAGGTCATTGTGGCCTCAAATTTGGTAATGTAACCCCC
DNA 2: GGGGGTTACATTACCAAATTTGAGGCCACAATGACCTACACCCCC
For the molecule B6, the binding result in series [1] is reported as “no binding”; in series [2], “binds”; in series [3] it was “no binding”.

B7: 122 (dsDNA)
DNA 1: GGGGGGAAAAGGATTTGTACTTAAATAAGCACCTGGCCCCCC
DNA 2: GGGGGGCCAGGTGCTTATTTAAGTACAAATCCTTTTCCCCCC
Regarding B7, the binding result in series [1] is “no binding”; in series [2] it was “binds”; in series [3], “binds”.

B8: 128 (dsDNA)
DNA 1: GGGGGAATATCAGTGTAATGATTAACAGACAATGGCAGAGGCCCCC
DNA 2: GGGGGCCTCTGCCATTGTCTGTTAATCATTACACTGATATTCCCCC
B8: the binding result in series [1] was “binds”; in series [2], “no binding”; in series [3], “no binding”.

B9: 11 (dsDNA)
DNA 1: GGGGGGTGGGGTACAAAAATGGCCCTTTGTGATCAACTCCCCC
DNA 2: GGGGGAGTTGATCACAAAGGGCCATTTTTGTACCCCACCCCCC
Consider B9, for which the binding result in series [1], in series [2] and in series [3] was “no binding” each time.

B10: 4a (dsDNA)
DNA 1: GGGGGGACTTAATTGTGAGTCTCTGTAAAATTAACAAACAAGTTACCCCCC
DNA 2: GGGGGGTAACTTGTTTGTTAATTTTACAGAGACTCACAATTAAGTCCCCCC
Turning to B10, the binding result in series [1] is on record as “no binding”; in series [2], “binds”; in series [3] it was “binds”.

B11: 127 (dsDNA)
DNA 1: GGGGGTTTTGTTTTTTGTTTAAAGCAATAACATATTCAGCCCCC
DNA 2: GGGGGCTGAATATGTTATTGCTTTAAACAAAAAACAAAACCCCC
Regarding B11, the binding result in series [1], in series [2] and in series [3] was “binds” each time.

B12: 4c (dsDNA)
DNA 1: GGGGGTAAAATTAACAAACAAGTTACATTATCTAATATACACCCCC
DNA 2: GGGGGTGTATATTAGATAATGTAACTTGTTTGTTAATTTTACCCCC
As for B12, the binding result was “no binding” in series [1], “binds” in series [2] and “binds” in series [3].

B13: 118 (dsDNA)
DNA 1: GGGGGGACAAGGGTCAATTTGCTAGACAAAGATCTTCACCCCC
DNA 2: GGGGGTGAAGATCTTTGTCTAGCAAATTGACCCTTGTCCCCCC
As for B13, the binding result in series [1], in series [2] and in series [3] was “no binding” in each case.

B14: 119 (dsDNA)
DNA 1: GGGGGCCGATCGCTTTGTTCTACATTTTATGTTCTATCCCCC
DNA 2: GGGGGATAGAACATAAAATGTAGAACAAAGCGATCGGCCCCC
As to B14, the binding result in series [1], in series [2] and in series [3] was “no binding” throughout.

B15: 123 (dsDNA)
DNA 1: GGGGGAGTGCTATTTTGTCGAGAAATTGTAGAAGACACCCCC
DNA 2: GGGGGTGTCTTCTACAATTTCTCGACAAAATAGCACTCCCCC
Regarding B15, the binding result in series [1], in series [2] and in series [3] was “no binding” in each case.

B16: 124 (dsDNA)
DNA 1: GGGGGCTTATGCTTCTATTCTACACAATTCCACAACCCCCC
DNA 2: GGGGGGTTGTGGAATTGTGTAGAATAGAAGCATAAGCCCCC
With B16, the binding result in series [1], in series [2] and in series [3] was “no binding” throughout.

B17: 7 (dsDNA)
DNA 1: GGGGGCAACCACCTCTAAATGCCTACAAATTGTATGGTCATCCCCC
DNA 2: GGGGGATGACCATACAATTTGTAGGCATTTAGAGGTGGTTGCCCCC
On to B17, for which the binding result in series [1], in series [2] and in series [3] was “no binding” in each case.

B18: 12 (dsDNA)
DNA 1: GGGGGAGTATGAGTTTGTATATGTTGATTAACCAAACACTCCCCC
DNA 2: GGGGGAGTGTTTGGTTAATCAACATATACAAACTCATACTCCCCC
B18: the binding result was “no binding” in series [1], “binds” in series [2] and “no binding” in series [3].

B19: 3 (dsDNA)
DNA 1: GGGGGACCTATACTTTGTTTTTATTGCCTAGTAATCCCCC
DNA 2: GGGGGATTACTAGGCAATAAAAACAAAGTATAGGTCCCCC
As for B19, the binding result in series [1], in series [2] and in series [3] was “no binding” each time.

B20: 6 (dsDNA)
DNA 1: GGGGGAGGACTTAATTGTTCGCATTTCTGTATTCTGCCCCC
DNA 2: GGGGGCAGAATACAGAAATGCGAACAATTAAGTCCTCCCCC
Regarding B20, the binding result is “no binding” in series [1], “binds” in series [2] and “binds” in series [3].
